According to patent US20100266532A1, “METHODS FOR INHIBITING SCARRING” (Renovo Limited, priority 2007, published 2010):

Assays:
[1] = tested on: 1 cm incisional rat wounds; assay: Reduction in scarring of rat wounds treated with IL-10 in two incidences of treatment; format: in vivo; conditions: for percentage reduction in scarring compared to placebo control: approximately 24 hours apart
Experimental: FIG. 13 is a graph showing the percentage reduction in scarring, as compared to placebo control, achieved in scars formed on healing of 1 cm incisional rat wounds treated with IL-10 administered by means of intradermal injection in two incidences of treatment, the first prior to wounding and the second approximately 24 hours later. Wounds dosed with IL-10 received either two injections of 500 ng/100 μl IL-10, two injections of 1000 ng/100 μl IL-10, or an escalating dose regime in accordance with the present invention, in which the first injection comprised 500 ng/100 μl IL-10 and the second injection comprised 1000 ng/100 μl IL-10.
Arrow heads mark the ends of the scars 70 days post wounding.

[2] = tested on: inflammatory cells in 1 cm incisional rat wounds; assay: Percentage of inflammatory cells (CD68 staining) in rat wounds; format: in vivo; conditions: 3 days post treatment
Excerpt: Wounds were excised from the experimental rats at 3 days post treatment, fixed in 10% (v/v) buffered formal saline, processed for histology and stained with CD68 to assess inflammatory cell numbers.

B1: IL-10: interleukin-10, anti-scarring agent; amino acid sequence of human IL-10 in Sequence ID No. 3 (protein, listed as Homo sapiens)
chain: MSPGQGTQSENSCTHFPGNLPNMLRDLRDAFSRVKTFFQMKDQLDNLLLKESLLEDFKGYLGCQALSEMIQFYLEEVMPQAENQDPDIKAHVNSLGENLKTLRLRLRRCHRFLPCENKSKAVEQVKNAFNKLQEKGIYKAMSEFDIFINYIEAYMTMKIRN
With B1 the “inhibition of scarring, macroscopic images” value ([1]; escalating 500 then 1000 ng/100 μl versus 500 ng/100 μl twice, 70 days post wounding) was “greater inhibition of scarring”, the “reduction in scarring versus constant doses” value ([1]; escalating: 500 ng/100 μl then 1000 ng/100 μl approximately 24 hours later) was “much larger magnitude of effect” and the “percentage reduction in scarring compared to placebo control” value ([1]; two injections of 500 ng/100 μl) was 27.5%. The “percentage reduction in scarring compared to placebo control” value ([1]; two injections of 1000 ng/100 μl) was 22.8%, the “infiltration of inflammatory cells into the wound compared to controls” value [2] was “reduces infiltration of inflammatory cells” and the “inflammatory cell numbers versus same dose given twice” value ([2]; escalating: 500 ng/100 μl then 1000 ng/100 μl) was “surprisingly marked decrease in inflammatory cell numbers”.
